In US6071709A, “Nerve growth factor/receptor complex” (The United States of America as represented by the …, priority 1992, dated 2000):

Key:
p140^prototrk [1] = biological target: T1, p140^prototrk (Rattus norvegicus, UniProt P35739); experiment: trk tyrosine phosphorylation in rtrk-3T3 cells, suramin treatment followed by NGF (in vivo and immune complex kinase assays); assay type: cell-based; conditions: suramin treated rtrk-3T3 cells, NGF (500 ng/ml) added for 10 min
Protocol: Cells were treated with suramin (lanes 2 and 5) or with 500 ng/ml NGF for 10 min following suramin treatment.
rtrk 3T3 cells were generated by CaPO4 mediated transfection of a rat trk cDNA into NIH-3T3 cells. […] PC12 cells or rtrk 3T3 cells (2×10^7) were labeled with ^32 P orthophosphate (1 mCi.ml in 4 ml) for 4 hr at 37° C. […] For c, rtrk 3T3 cells were treated with 1 mM suramin in Dulbecco's Modified Eagle Medium (DMEM) for 2 h or mock treated. Following extensive washing of the cells with DMEM, NGF was added for the time indicated. Cells were lysed and the lysates were immunoprecipitated with trk antibody. Immunoprecipitates were either subjected to immunoblot analysis with the phosphotyrosine (Ptyr) monoclonal antibody 4G10 (Lanes 1-3), or were analyzed in kinase assays. […] Similar amounts of trk protein were present in each lane.

p140^prototrk [2] = experiment: NGF-dependent trk tyrosine phosphorylation in LA-N-5 neuroblastoma cells; assay type: cell-based, human; conditions: LA-N-5 cells, 100 ng/ml NGF for 5 min
Description: (§1) FIGS. 4A-B show NGF-dependent tyrosine phosphorylation of gp140trk in the human neuroblastoma cell lines LA-N-5, SY5Y, and dorsal root ganglia from mouse embryos. FIG. 4A, gp140trk was immunoprecipitated from untreated (-) or NGF treated (+) LA-N-5 cells (K. H. Sonnenfeld and D. N. Ishii, J. Neurosci. Res. 8:375-391 (1982)), SY5Y cells (K. H. Sonnenfeld and D. N. Ishii, (1982)), NR18 cells (M. A. Bothwell et al., Cell 21:857-866 (1980)), or PC12 cells. Immunoprecipitates were probed with P-tyr antibodies. The differences in trk protein mobilities are due to differences in glycosylation. FIG. 4B, Tyrosine phosphorylation of gp140trk in DRGs from 13.5 day or 14.5 day embryonic mice. DRGs were maintained in 100 ng/ml NGF for ≥10 min prior to lysis and immunoprecipitation with trk antibodies. trk immunoprecipitates were probed with P-tyr antibody. Tyrosine phosphorylated gp140trk from NGF-treated (+) PC12 cells or untreated (-) PC12 cells is shown for comparison. Samples were normalized for cell protein. Molecular weight markers in kDa are indicated.
(§2) Cell lines were treated with 100 ng/ml NGF for 5 min and gp140trk immunoprecipitated as in FIG. 1. DRGs were prepared by dissection for 13.5 or 14.5 day mouse embryos. […] Lysates were immunoprecipitated with trk antibody and the trk proteins were analyzed by antiphosphotyrosine immunoblots. […]

trk transcripts = experiment: Northern transfer analysis of trk transcripts in PC12 cells with or without NGF; assay type: cell-based, rat; conditions: 50 ng/ml NGF, 48 hr
Protocol: RNA preparation and Northern transfer analysis was performed as described (Martin-Zanca et al., (1990a)). Cells were treated with 50 ng/ml NGF(+) (Boehringer Mannheim Biochemicals) and were harvested 48 hr later after differentiation had occurred. 20 μg of total RNA was loaded per lane, and the filter was hybridized with a trk (Martin-Zanca et al., (1990)) or trkB (Klein et al., (1990a)) specific probe.
The trk gene is a member of a gene family of TK receptors that includes the related gene trkb. To determine if trk is transcribed in PC12 cells, the expression of trk transcripts was assayed by Northern transfer analysis with a full-length trk cDNA probe (R. Klein et al., (1990a)). PC12 cells contained trk transcripts (FIG. 7). The level of trk transcripts was not affected by the addition of NGF. To determine whether additional trk-related genes were transcribed in PC12 cells, mRNA was hybridized at low stringency with the highly conserved trk TK domain. trk transcripts have been found in LA-N-5 cells, Sy5y cells and DRG from 13.5 day or 14.5 day embryonic mice.

p140^prototrk [3] = biological target: T1, p140^prototrk; experiment: NGF-dependent trk tyrosine phosphorylation in NR18 cells (PC12 derivative); assay type: cell-based; set-up: the phosphorylation state of the trk receptor on the NR18 cell line; endogenous in cells; host or cells: NR18 cells; conditions: 100 ng/ml NGF for 5 min
Description: as §1, §2

T1 sequence (P35739 33-799): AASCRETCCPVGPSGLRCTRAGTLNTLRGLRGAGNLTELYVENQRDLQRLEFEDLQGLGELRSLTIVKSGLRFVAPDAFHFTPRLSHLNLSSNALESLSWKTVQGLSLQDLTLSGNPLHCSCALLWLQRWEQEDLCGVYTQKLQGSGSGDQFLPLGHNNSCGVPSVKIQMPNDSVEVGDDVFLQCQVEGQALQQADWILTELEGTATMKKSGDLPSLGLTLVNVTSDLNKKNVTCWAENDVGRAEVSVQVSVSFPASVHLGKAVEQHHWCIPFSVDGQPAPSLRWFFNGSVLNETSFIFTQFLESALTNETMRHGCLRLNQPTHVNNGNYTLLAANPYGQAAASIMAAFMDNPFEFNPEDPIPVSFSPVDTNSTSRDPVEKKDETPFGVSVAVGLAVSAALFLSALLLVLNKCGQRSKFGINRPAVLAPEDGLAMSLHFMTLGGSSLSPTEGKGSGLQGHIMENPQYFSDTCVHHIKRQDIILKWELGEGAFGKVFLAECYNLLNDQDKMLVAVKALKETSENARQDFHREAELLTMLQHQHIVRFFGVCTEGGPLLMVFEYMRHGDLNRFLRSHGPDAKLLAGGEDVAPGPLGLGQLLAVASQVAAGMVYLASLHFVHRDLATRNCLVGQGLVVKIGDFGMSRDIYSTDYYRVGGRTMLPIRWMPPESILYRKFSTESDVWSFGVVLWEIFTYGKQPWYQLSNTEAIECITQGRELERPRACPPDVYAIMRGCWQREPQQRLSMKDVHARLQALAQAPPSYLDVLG

NGF: neurotrophic polypeptide factor, nerve growth factor; ligand of trk proto-oncogene receptor
stimulation of tyrosine phosphorylation of gp140^prototrk in vivo and in vitro (p140^prototrk [1]): at least 10 fold
p140^prototrk tyrosine phosphorylation (p140^prototrk [2]): enhanced
level of trk transcripts (trk transcripts): not affected
p140^prototrk phosphorylation in response to NGF (p140^prototrk [3]): no phosphorylation
